Test results published in paper PMC3278561 (Plant Cell Reports, 2011).

Biological target: the molecule itself
Experiment: transmission electron microscopy

B1: plant-derived Norwalk virus capsid protein (NVCP), assembled as virus-like particles (VLP) (natural protein)
chain: MMMASKDATSSVDGASGAGQLVPEVNASDPLAMDPVAGSSTAVATAGQVNPIDPWIINNFVQAPQGEFTISPNNTPGDVLFDLSLGPHLNPFLLHLSQMYNGWVGNMRVRIMLAGNAFTAGKIIVSCIPPGFGSHNLTIAQATLFPHVIADVRTLDPIEVPLEDVRNVLFHNNDRNQQTMRLVCMLYTPLRTGGGTGDSFVVAGRVMTCPSPDFNFLFLVPPTVEQKTRPFTLPNLPLSSLSNSRAPLPISSMGISPDNVQSVQFQNGRCTLDGRLVGTTPVSLSHVAKIRGTSNGTVINLTELDGTPFHPFEGPAPIGFPDLGGCDWHINMTQFGHSSQTQYDVDTTPDTFVPHLGSIQANGIGSGNYVGVLSWISPPSHPSGSQVDLWKIPNYGSSITEATHLAPSVYPPGFGEVLVFFMSKMPGPGAYNLPCLLPQEYISHLASEQAPTVGEAALLHYVDPDTGRNLGEFKAYPDGFLTCVPNGASSGPQQLPINGVFVFVSWVSRFYQLKPVGTASSARGRLGLRR
- binding result: binds
